{"source": "paper PMC13572001", "about": "“Sequence-based artificial intelligence-guided inhibitory peptides to counteract AAV neutralizing antibodies in gene therapy” (Molecular Therapy Advances, 2026)", "molecules": {"B1": {"name": "OVA: OVA protein (InvivoGen #vac-pova), positive control (protein, UniProt P01012 2-386, looked up)", "Ovalbumin": "GSIGAASMEFCFDVFKELKVHHANENIFYCPIAIMSALAMVYLGAKDSTRTQINKVVRFDKLPGFGDSIEAQCGTSVNVHSSLRDILNQITKPNDVYSFSLASRLYAEERYPILPEYLQCVKELYRGGLEPINFQTAADQARELINSWVESQTNGIIRNVLQPSSVDSQTAMVLVNAIVFKGLWEKAFKDEDTQAMPFRVTEQESKPVQMMYQIGLFRVASMASEKMKILELPFASGTMSMLVLLPDEVSGLEQLESIINFEKLTEWTSSNVMEERKIKVYLPRMKMEEKYNLTSVLMAMGITDVFSSSANLSGISSAESLKISQAVHAAHAEINEAGREVVGSAEAGVDAASVSEEFRADHPFLFCIKHIATNAVLFFGRCVSP"}}, "test": "Safety assessment after i.p. peptide mixture in mice", "conditions": "positive control, same conditions, day 7", "experimental": "To assess potential immunogenicity following peptide administration, we performed enzyme-linked immunosorbent assays (ELISA) to measure peptide-specific IgG responses.\n(E) Detection of peptide-specific IgG in plasma by ELISA following peptide or control antigen administration.\nMice were injected (i.p.) with human-derived or viral-derived peptide mixtures, or OVA protein (InvivoGen #vac-pova). Plasma was collected at 24 h for cytokine analysis (BD #552364) and at day 7 for peptide- or OVA-specific antibody detection via direct ELISA."}
{"molecule": "B1", "values": [{"measurement": "OVA-specific antibody response (direct ELISA)", "result": "robust antibody response"}]}
